Laboratory results taken from patent US20230391845A1, “GLP-1, GIP AND GLUCAGON RECEPTOR TRIPLE AGONISTS” (priority 2020, published 2023).
Where no end group is shown, it is not given here. [ ]: non-standard residue; d: D form. Aib = CC(C)(N)C(=O)O

T1: human glucose-dependent insulinotropic polypeptide receptor (human, UniProt P48546 22-466)
T1 sequence (looked up): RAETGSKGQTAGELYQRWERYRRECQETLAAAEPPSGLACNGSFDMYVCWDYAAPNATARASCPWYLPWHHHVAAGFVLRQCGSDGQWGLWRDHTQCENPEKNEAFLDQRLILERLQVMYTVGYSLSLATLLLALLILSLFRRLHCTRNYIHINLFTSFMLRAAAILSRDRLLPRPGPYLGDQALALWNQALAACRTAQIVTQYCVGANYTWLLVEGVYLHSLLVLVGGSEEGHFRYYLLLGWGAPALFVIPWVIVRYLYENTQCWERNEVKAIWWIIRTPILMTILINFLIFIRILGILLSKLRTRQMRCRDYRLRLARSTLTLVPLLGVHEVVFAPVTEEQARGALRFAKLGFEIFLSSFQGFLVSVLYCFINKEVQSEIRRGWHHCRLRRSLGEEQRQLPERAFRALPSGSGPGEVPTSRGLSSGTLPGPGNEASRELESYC


Columns and labels:
Assay in all cases: cell-based or functional assay
[1] = target: human glucagon-like peptide 1 receptor (human, UniProt P43220 24-463)
[2] = target: T1, human glucose-dependent insulinotropic …
human glucagon receptor = human glucagon receptor (human, UniProt P47871 26-477)
human glucagon receptor, sequence (P47871 26-477): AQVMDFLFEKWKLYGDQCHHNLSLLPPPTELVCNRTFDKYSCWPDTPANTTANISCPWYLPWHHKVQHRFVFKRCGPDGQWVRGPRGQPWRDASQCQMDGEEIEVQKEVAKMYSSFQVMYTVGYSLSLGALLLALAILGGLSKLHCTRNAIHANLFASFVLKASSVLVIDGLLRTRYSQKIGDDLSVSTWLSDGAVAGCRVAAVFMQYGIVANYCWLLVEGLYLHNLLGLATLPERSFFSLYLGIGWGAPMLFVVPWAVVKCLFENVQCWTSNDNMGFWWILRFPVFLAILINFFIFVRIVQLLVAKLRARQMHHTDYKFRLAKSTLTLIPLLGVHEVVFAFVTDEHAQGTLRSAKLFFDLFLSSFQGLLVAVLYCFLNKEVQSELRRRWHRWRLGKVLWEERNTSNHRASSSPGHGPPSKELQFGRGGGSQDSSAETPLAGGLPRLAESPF

Row | Binder | hGLP-1R CRE Luc EC50 (pM) [1] | hGIPR CRE Luc EC50 (pM) [2] | hGcgR CRE Luc EC50 (pM) (human glucagon receptor)
1 | Y[Aib]QGTFTSDYSIYLDKQAA[Aib]EFVNWLLAGGPSSGAPPPS-NH2 (not fully specified (residue 16); printed as Y-Aib-QGTFTSDYSIYLD-K[2-[2-[2-[[2-[2-[2-[[(4S)-4-carboxy-4-[[4-[(19-carboxynonadecanoylamino) methyl]cyclohexanecarbonyl]amino]butanoyl]amino]ethoxy ]ethoxy]acetyl]amino]ethoxy]ethoxy]acetyl]-QAA-Aib-EFVNWLLAGGPSSGAPPPS-NH2) [Compound No. 6] | 5.1 pM | 7.7 pM | 216 pM
2 | H[Aib]HGTFTSDYSILLEKQAAREFVQWLLEGGPSSGAPPPS-OH (not fully specified (residue 16); printed as H-Aib-HGTFTSDYSILLE-K[(2S)-2-amino-6-[[(2S)-2-amino-6-[[(4S)-4-carboxy-4-(19-carboxynonadecanoylamino)butanoyl]amino]hexanoyl]amino]hexanoyl]-QAAREFVQWLLEGGPSSGAPPPS-OH) [Compound No. 55] | 2 pM | 7.5 pM | 18.8 pM
3 | H[Aib]HGTFTSDYSILLEKQAAHEFVQWLLEGGPSSGAPPPS-OH (not fully specified (residue 16); printed as H-Aib-HGTFTSDYSILLE-K[(2S)-2-amino-6-[[(2S)-2-amino-6-[[(4S)-4-carboxy-4-(17-carboxyheptadecanoylamino)butanoyl]amino]hexanoyl]amino]hexanoyl]-QAAHEFVQWLLEGGPSSGAPPPS-OH) [Compound No. 56] | 1.1 pM | 2.3 pM | 6.4 pM
4 | H[Aib]HGTFTSDYSILLEKQAAREFVQWLLEGGPSSGAPPPS-OH (not fully specified (residue 16); printed as H-Aib-HGTFTSDYSILLE-K[(2S)-2-amino-6-[[(2S)-2-amino-6-[[(4S)-4-carboxy-4-(17-carboxyheptadecanoylamino)butanoyl]amino]hexanoyl]amino]hexanoyl]-QAAREFVQWLLEGGPSSGAPPPS-OH) [Compound No. 54] | 1.5 pM | 28 pM | 22.8 pM
5 | Y[Aib]QGTFTSDYSIYLDKQAA[Aib]KFVQWLLEGGPSSGAPPPS-NH2 (not fully specified (residue 21); printed as Y-Aib-QGTFTSDYSIYLDKQAA-Aib-K[2-[2-[2-[[2-[2-[2-[[(4S)-4-carboxy-4-[[4-[(19-carboxynonadecanoylamino)methyl]cyclohexanecarbonyl]amino]butanoyl]amino]ethoxy]ethoxy]acetyl]amino]ethoxy]ethoxy]acetyl]-FVQWLLEGGPSSGAPPPS-NH2) [Compound No. 8] | 12.1 pM | 45.5 pM | 91.9 pM
6 | Y[Aib]QGTFTSDYSIYLDKQAA[Aib]KFVQWLLEGGPSSGAPPPS-NH2 (not fully specified (residue 21); printed as Y-Aib-QGTFTSDYSIYLDKQAA-Aib-K[2-[2-[2-[[2-[2-[2-11(4S)-4-carboxy-4-(19-carboxynonadecanoylamino)butanoyl]amino]ethoxy]ethoxy]acetyl]amino]ethoxy]ethoxy]acetyl]-FVQWLLEGGPSSGAPPPS-NH2) [Compound No. 7] | 8.2 pM | 65.5 pM | 61.3 pM
7 | Y[Aib]QGTFTSDYSIYLEKQAA[Aib]EFVNWLLAGGPSSGAPPPS-NH2 (not fully specified (residue 16); printed as Y-Aib-QGTFTSDYSIYLE-K[2-[2-[2-[[2-[2-[2-[[(4S)-4-carboxy-4-[[4-[(19-carboxynonadecanoylamino)methyl]cyclohexanecarbonyl]amino]butanoyl]amino]ethoxy]ethoxy]acetyl]amino]ethoxy]ethoxy]acetyl]-QAA-Aib-EFVNWLLAGGPSSGAPPPS-NH2) [Compound No. 12] | 2.4 pM | 1.8 pM | 239 pM
8 | Y[Aib]QGTFTSDYSIYLDKKAA[Aib]EFVNWLLAGGPSSGAPPPS-NH2 (not fully specified (residue 17); printed as Y-Aib-QGTFTSDYSIYLDK-K[2-[2-[2-[[2-[2-[2-[[(4S)-4-carboxy-4-[[4-[(19-carboxynonadecanoylamino)methyl]cyclohexanecarbonyl]amino]butanoyl]amino]ethoxy]ethoxy]acetyl]amino]ethoxy]ethoxy]acetyl]-AA-Aib-EFVNWLLAGGPSSGAPPPS-NH2) [Compound No. 10] | 4.7 pM | 27.6 pM | 250 pM
9 | Y[Aib]QGTFTSDYSIYLDKKAA[Aib]EFVNWLLAGGPSSGAPPPS-NH2 (not fully specified (residue 17); printed as Y-Aib-QGTFTSDYSIYLDK-K[2-[2-[2-[[2-[2-[2-[[(4S)-4-carboxy-4-(19-carboxynonadecanoylamino)butanoyl]amino]ethoxy]ethoxy]acetyl]amino]ethoxy]ethoxy]acetyl]-AA-Aib-EFVNWLLAGGPSSGAPPPS-NH2) [Compound No. 9] | 4.4 pM | 48.6 pM | 116 pM
10 | Y[Aib]QGTFTSDYSIYLEKQAA[Aib]KFVQWLLEGGPSSGAPPPS-NH2 (not fully specified (residue 21)) [Compound No. 11] | 4.3 pM | 7.9 pM | 129 pM
11 | H[Aib]HGTFTSDYSILLEKQAAQEFVQWLLEGGPSSGAPPPS-OH (not fully specified (residue 16); printed as H-Aib-HGTFTSDYSILLE-K[(2S)-2-amino-6-[[(2S)-2-amino-6-[[(4S)-4-carboxy-4-(19-carboxynonadecanoylamino)butanoyl]amino]hexanoyl]amino]hexanoyl]-QAAQEFVQWLLEGGPSSGAPPPS-OH) [Compound No. 53] | 2.7 pM | 4.8 pM | 22 pM
12 | H[Aib]HGTFTSDYSILLEKQAAQEFVQWLLEGGPSSGAPPPS-OH (not fully specified (residue 16); printed as H-Aib-HGTFTSDYSILLE-K[(2S)-2-amino-6-[[(2S)-2-amino-6-[[(4S)-4-carboxy-4-(17-carboxyheptadecanoylamino)butanoyl]amino]hexanoyl]amino]hexanoyl]-QAAQEFVQWLLEGGPSSGAPPPS-OH) [Compound No. 52] | 0.8 pM | 6.6 pM | 14.9 pM
13 | Y[Aib]QGTFTSDYSIYLEKQAA[Aib]EFVNWLLAGGPSSGAPPPS-NH2 (not fully specified (residue 16); printed as Y-Aib-QGTFTSDYSIYLE-K[(2S)-2-amino-6-[[(2S)-2-amino-6-[[(4S)-4-carboxy-4-[[4-[(19-carboxynonadecanoylamino)methyl]cyclohexanecarbonyl]amino]butanoyl]amino]hexanoyl]amino]hexanoyl]-QAA-Aib-EFVNWLLAGGPSSGAPPPS-NH2) [Compound No. 13] | 2.8 pM | 2.1 pM | 157 pM
14 | Y[Aib]QGTFTSDYSIYLDKQAA[Aib]EFVNWLLAGGPSSGAPPPS-NH2 (not fully specified (residue 16); printed as Y-Aib-QGTFTSDYSIYLD-K[2-[2-[2-[2-[2-[2-[[[(4S)-4-carboxy-4-(19-carboxynonadecanoylamino) butanoyl]amino]ethoxy]ethoxy]acetyl]amino]ethoxy]ethoxy]acetyl]-QAA-Aib-EFVNWLLAGGPSSGAPPPS-NH2) [Compound No. 5] | 7.2 pM | 20.6 pM | 205 pM
15 | Y[Aib]QGTFTSDYSIYLDKQAA[Aib]KFVQWLLEGGPSSGAPPPS-NH2 (not fully specified (residue 21); printed as Y-Aib-QGTFTSDYSIYLDKQAA-Aib-K[2-[2-[2-[[2-[2-[2-[[(4S)-4-carboxy-4-(17-carboxyheptadecanoylamino)butanoyl]amino]ethoxy]ethoxy]acetyl]amino]ethoxy]ethoxy]acetyl]-FVQWLLEGGPSSGAPPPS-NH2) [Compound No. 4] | 9.4 pM | 60.3 pM | 31.4 pM
